The results in this text go back to PMC3920835.

One may read the stoichiometry N as a count of units in the complex or per binding partner.

In the experiment the target is Methylibium petroleiphilum PM1 dioxygenase (Mpe_A2762) (Methylibium petroleiphilum PM1) (UniProt A2SJH7). Kind of experiment: SEC-MALS.

The substance “Methylibium petroleiphilum PM1 dioxygenase (Mpe_A2762) (from UniProt A2SJH7 1-253) (enzyme)” showed a stoichiometry N of 2.
